# Laboratory results: US20180085432A1, “STING (Stimulator of Interferon Genes), A Regulator of Innate Immune Responses” (University of Miami, priority 2008, published 2018)
# Tests used:
# [1] = biological target: T1, STING (Mus musculus, UniProt Q3TBT3); assay: STING trafficking in MEFs stably transfected with HA-STING after ISD stimulation; assay type: cell-based, murine; conditions: Brefeldin A (0.1 ng/ml) or chloroquine (0.1 mM) for 1 hour prior to ISD stimulation
# T1 construct: expressed in transfected cells
# T1 sequence (Q3TBT3 1-378): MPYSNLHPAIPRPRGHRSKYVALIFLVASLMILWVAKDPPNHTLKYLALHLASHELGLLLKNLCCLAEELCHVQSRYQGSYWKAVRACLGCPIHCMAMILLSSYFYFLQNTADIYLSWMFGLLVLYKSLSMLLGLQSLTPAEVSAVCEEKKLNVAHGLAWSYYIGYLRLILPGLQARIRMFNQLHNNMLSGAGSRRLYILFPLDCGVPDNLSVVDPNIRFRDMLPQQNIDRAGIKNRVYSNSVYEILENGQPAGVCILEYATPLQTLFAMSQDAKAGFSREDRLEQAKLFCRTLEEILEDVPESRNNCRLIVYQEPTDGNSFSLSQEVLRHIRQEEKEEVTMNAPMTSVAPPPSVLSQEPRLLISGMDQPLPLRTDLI
# Method: FIG. 32B: MEFs stably transfected with HA-STING were treated with Brefeldin A (0.1 ng/ml) or chloroquine (0.1 mM) for 1 hour prior to ISD stimulation (3 hours 1 ng/ml in Lipofectamine 2000). Green=anti-HA and red=anti-calreticulin. FIG. 32C: Wild type MEFs were treated with Brefeldin A as above and IFNβ mRNA measured. FIGS. 32D, 32E: 293T cells were treated with various concentrations of Brefeldin A as above were co-transfected with STING, constitutively active IRF3 or IRF7 and IFN-luciferase reporter plasmid. Luciferase was measured after 24 hours. FIGS. 32F, 32G: Macrophages treated with various chloroquine amounts for one hour were treated with ISD (1 ng/ml), poly (dAT-dAT) [1 ng/ml] or LPS (1ng/ml) and after 16 hours IFNβ or IL6 measured by ELISA. FIG. 32H: STING^−/− MEFS were transfected with HA-STING or HA-STINGΔSP (that lacks the first 36 amino acids representing a potential signal peptide motif) for 24 hours prior to treatment with ISD (1 ng/ml). After 3 hours STING localization was measured using immunofluorescence and an anti-HA antibody (green) or anti calreticulin antibody (red). FIG. 32I: 293T cells were co-transfected with HA-STING or HA-STINGΔSP and an IFN-Luciferase plasmid and after 24 hours luciferase was measured. […] Asterisks indicate significant difference (P<0.05) as determined by Student's t-test. Error bars indicate s.d. […]
# [2] = biological target: STING (Homo sapiens, UniProt Q86WV6); assay: STING cell based assay, drug library screen
# [3] = biological target: S366 peptide of STING
# [4] = biological target: A366 peptide of STING
# [5] = test system: A366 peptide; assay: screening of kinases for S366 of STING (33P-ATP); assay type: biochemical; conditions: kinase mixed with peptide and 33P-ATP
# Method: (§1) The activity of 217 protein kinase targets were evaluated against 2 peptides (A366 and S366) as substrate. Protein kinases were mixed with each peptide and ^33P-ATP and then activity (CPM) was measured. The below kinases were identified as phosphorylating S366 in STING. Identification of kinases which target this serine opens up novel avenues for drug discovery. Drugs that target this association may inhibit STING activity and be used for therapeutic purposes to inhibit STING activity. STING over activity may lead to inflammatory diseases which can exacerbate cancer.
# [6] = test system: S366 peptide; assay: screening of kinases for S366 of STING (33P-ATP); assay type: biochemical; conditions: for Fold inducton: S366 peptide vs A366 peptide; for Activity, S366 peptide: kinase mixed with peptide and 33P-ATP
# Method: as §1
# Chain of STING (Homo sapiens, UniProt Q86WV6) (Q86WV6 whole entry): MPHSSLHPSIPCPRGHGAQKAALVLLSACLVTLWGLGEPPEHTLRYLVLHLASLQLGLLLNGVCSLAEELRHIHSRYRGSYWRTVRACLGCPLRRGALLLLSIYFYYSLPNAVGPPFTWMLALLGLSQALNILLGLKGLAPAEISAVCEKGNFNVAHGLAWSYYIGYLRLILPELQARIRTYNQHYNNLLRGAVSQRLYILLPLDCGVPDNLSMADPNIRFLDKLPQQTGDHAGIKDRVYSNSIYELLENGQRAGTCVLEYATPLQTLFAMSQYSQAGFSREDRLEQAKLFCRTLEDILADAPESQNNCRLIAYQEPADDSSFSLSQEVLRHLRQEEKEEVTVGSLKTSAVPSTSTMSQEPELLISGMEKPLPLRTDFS
Molecule,STING trafficking [1],Activators of STING [2],"Activity (cpm), kinase mixed with peptide and 33P-ATP [3] [cpm]","Activity (cpm), kinase mixed with peptide and 33P-ATP [4] [cpm]","Activity, A366 peptide [5] [cpm]",Fold inducton [6],"Activity, S366 peptide [6] [cpm]"
CCN(CC)CCCC(C)Nc1ccnc2cc(Cl)ccc12 (stereo not shown) [chloroquine],but not chloroquine blocked STING trafficking,–,–,–,–,–,–
O=C(O)/C=C\C(=O)O.O=C1/C(=C/c2ccccc2)C[C@@]2(O)[C@H]3Cc4ccc(O)c5c4[C@@]2(CCN3CC2CC2)[C@H]1O5 [BNTX maleate salt hydrate],–,Activators of STING,–,–,–,–,–
C[C@H]1CCC/C=C/[C@@H]2C[C@H](O)C[C@H]2[C@H](O)/C=C/C(=O)O1 [Brefeldin A],blocked STING trafficking,–,–,–,–,–,–
C[C@@H]1O[C@@H](O[C@H]2C[C@@H](O)[C@]3(CO)[C@H]4[C@H](O)C[C@]5(C)[C@@H]([C@@H]6COC(=O)C6)CC[C@]5(O)[C@@H]4CC[C@]3(O)C2)[C@H](O)[C@H](O)[C@H]1O [dihydroouabain],–,Activators of STING,–,–,–,–,–
ULK2 (enzyme) MEVVGDFEYSKRDLVGHGAFAVVFRGRHRQKTDWEVAIKSINKKNLSKSQILLGKEIKILKELQHENIVALYDVQELPNSVFLVMEYCNGGDLADYLQAKGTLSEDTIRVFLHQIAAAMRILHSKGIIHRDLKPQNILLSYANRRKSSVSGIRIKIADFGFARYLHSNMMAATLCGSPMYMAPEVIMSQHYDAKADLWSIGTVIYQCLVGKPPFQANSPQDLRMFYEKNRSLMPSIPRETSPYLANLLLGLLQRNQKDRMDFEAFFSHPFLEQGPVKKSCPVPVPMYSGSVSGSSCGSSPSCRFASPPSLPDMQHIQEENLSSPPLGPPNYLQVSKDSASTSSKNSSCDTDDFVLVPHNISSDHSCDMPVGTAGRRASNEFLVCGGQCQPTVSPHSETAPIPVPTQIRNYQRIEQNLTSTASSGTNVHGSPRSAVVRRSNTSPMGFLRPGSCSPVPADTAQTVGRRLSTGSSRPYSPSPLVGTIPEQFSQCCCGHPQGHDSRSRNSSGSPVPQAQSPQSLLSGARLQSAPTLTDIYQNKQKLRKQHSDPVCPSHTGAGYSYSPQPSRPGSLGTSPTKHLGSSPRSSDWFFKTPLPTIIGSPTKTTAPFKIPKTQASSNLLALVTRHGPAEE,–,–,15600,7380,7377,21.13,15580
TBK1 (protein kinase panel) (enzyme) MQSTSNHLWLLSDILGQGATANVFRGRHKKTGDLFAIKVFNNISFLRPVDVQMREFEVLKKLNHKNIVKLFAIEEETTTRHKVLIMEFCPCGSLYTVLEEPSNAYGLPESEFLIVLRDVVGGMNHLRENGIVHRDIKPGNIMRVIGEDGQSVYKLTDFGAARELEDDEQFVSLYGTEEYLHPDMYERAVLRKDHQKKYGATVDLWSIGVTFYHAATGSLPFRPFEGPRRNKEVMYKIITGKPSGAISGVQKAENGPIDWSGDMPVSCSLSRGLQVLLTPVLANILEADQEKCWGFDQFFAETSDILHRMVIHVFSLQQMTAHKIYIHSYNTATIFHELVYKQTKIISSNQELIYEGRRLVLEPGRLAQHFPKTTEENPIFVVSREPLNTIGLIYEKISLPKVHPRYDLDGDASMAKAITGVVCYACRIASTLLLYQELMRKGIRWLIELIKDDYNETVHKKTEVVITLDFCIRNIEKTVKVYEKLMKINLEAAELGEISDIHTKLLRLSSSQGTIETSLQDIDSRLSPGGSLADAWAHQEGTHPKDRNVEKLQVLLNCMTEIYYQFKKDKAERRLAYNEEQIHKFDKQKLYYHATKAMTHFTDECVKKYEAFLNKSEEWIRKMLHLRKQLLSLTNQCFDIEEEVSKYQEYTNELQETLPQKMFTASSGIKHTMTPIYPSSNTLVEMTLGMKKLKEEMEGVVKELAENNHILERFGSLTMDGGLRNVDCL,–,–,16700,6600,6603,2.52,16651
ULK1 (enzyme) MEPGRGGTETVGKFEFSRKDLIGHGAFAVVFKGRHREKHDLEVAVKCINKKNLAKSQTLLGKEIKILKELKHENIVALYDFQEMANSVYLVMEYCNGGDLADYLHAMRTLSEDTIRLFLQQIAGAMRLLHSKGIIHRDLKPQNILLSNPAGRRANPNSIRVKIADFGFARYLQSNMMAATLCGSPMYMAPEVIMSQHYDGKADLWSIGTIVYQCLTGKAPFQASSPQDLRLFYEKNKTLVPTIPRETSAPLRQLLLALLQRNHKDRMDFDEFFHHPFLDASPSVRKSPPVPVPSYPSSGSGSSSSSSSTSHLASPPSLGEMQQLQKTLASPADTAGFLHSSRDSGGSKDSSCDTDDFVMVPAQFPGDLVAEAPSAKPPPDSLMCSGSSLVASAGLESHGRTPSPSPPCSSSPSPSGRAGPFSSSRCGASVPIPVPTQVQNYQRIERNLQSPTQFQTPRSSAIRRSGSTSPLGFARASPSPPAHAEHGGVLARKMSLGGGRPYTPSPQVGTIPERPGWSGTPSPQGAEMRGGRSPRPGSSAPEHSPRTSGLGCRLHSAPNLSDLHVVRPKLPKPPTDPLGAVFSPPQASPPQPSHGLQSCRNLRGSPKLPDFLQRNPLPPILGSPTKAVPSFDFPKTPSSQNLLALLARQ,–,–,209000,12200,12221,17.10,209014
